Patent US7838288B2, “Modulators of odorant receptors” (Duke University, priority 2004, dated 2010)

T1: mouse odorant receptor OREG (Mus musculus, UniProt Q920P2)
T1 construct: expressed in transfected cells; host or cells: 293T cells (with or without co-transfected REEP1/RTP1/RTP2) and Hana3A cells (293T stably expressing mouse REEP1, RTP1, RTP2, Galpha-olf)
T1 sequence (Q920P2 1-313): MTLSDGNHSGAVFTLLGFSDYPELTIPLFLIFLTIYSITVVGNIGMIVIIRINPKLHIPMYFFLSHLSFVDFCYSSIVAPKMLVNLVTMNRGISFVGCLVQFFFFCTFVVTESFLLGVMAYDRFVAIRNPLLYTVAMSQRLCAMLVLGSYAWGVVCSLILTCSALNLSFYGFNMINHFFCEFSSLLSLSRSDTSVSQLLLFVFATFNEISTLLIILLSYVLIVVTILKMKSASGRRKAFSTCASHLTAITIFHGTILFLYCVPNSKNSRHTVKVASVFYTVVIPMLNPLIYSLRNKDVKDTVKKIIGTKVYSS


Experiments:
[1] = tested on: olfr62; assay: CRE-luciferase reporter gene assay, olfr62; format: cell-based, mouse; conditions: Hana3A cells
Procedure: Four ORs (S6/79, S18, S46 and S50) previously assayed using other techniques (see, e.g., Malnic, B., et al. (1999) Cell 96, 713-723; herein incorporated by reference in its entirety) were tested against an assay panel of aliphatic alcohols, aldehydes and acids and some other odorants. Additionally, five “orphan” class I ORs (MOR23-1, MOR31-4, MOR31-6, MOR32-5 and MOR32-11) whose cognate ligands were unknown were tested. At a suprathreshold concentration of 100 uM, all these ORs were odorant selective, responding to only a small subset of the odorants tested (see FIG. 11A). This specificity was retained at lower, more physiologically relevant concentrations. Many of these ORs responded to odorants present in micromolar concentrations. The cell-surface expression of these ORs by living-cell immunofluorescence were evaluated. Some ORs (S18, MOR31-4, MOR31-6 and MOR32-5) were strongly expressed while other ORs (S6, S50, MOR23-1, MOR32-11) were weakly expressed (see FIG. 12). The present invention is not limited to a particular mechanism. Indeed, an understanding of the mechanism is not necessary to practice the present invention. […] Finally, two additional orphan class II ORs, MOR203-1 and olfr62, were tested against a panel of 139 odorants. […] Olfr62 responded to coumarine and piperonal (see FIG. 11C). […] When parental 293T cells for these ORs were used in this luciferase assay, little or no response to the odorants was observed. The present invention is not limited to a particular mechanism. Indeed, an understanding of the mechanism is not necessary to practice the present invention.
Dual-Glo system (Promega) for luciferase assay was used. CRE-Luciferase (Stratagene) was used to measure the receptor activities. Renilla luciferase driven by constitutively active SV40 promoter (pRL-SV40: Promega) was used as an internal control. Cells were plated on poly-D-lysine coated 96 well plates (BIOCOAT, Beckton Dickinson). After 8 hours (for experiments shown in FIGS. 8B and 8C) or 12 hours (for experiments shown in FIG. 8D and FIG. 11) after transfection, the medium was replaced with CD293 chemically defined medium (Invitrogen) and the plates were incubated for one hour at 37 degrees C. The medium was replaced with 50 ul of odorant solutions dissolved in CD293 and incubated for 10 hours (for experiments shown in FIGS. 8B and 8C) or 4 hours (for experiments shown in FIG. 8D and FIG. 11) at 37 degrees C. The manufacture's protocol for measuring luciferase and Renilla luciferase activities was followed. Luminescence was measured using Wallac Victor 1420 (Perkin-Elmer). Normalized luciferase activity was calculated as [Luc (N)-Luc (0)]/RL (N), where Luc (N)=Luminescent count of a certain well, Luc (0)=Luminescent count without odorant for each OR, and RL (N)=Luminescent count of Renilla Luciferase of each well. For cAMP assays, cells were plated onto 24-well plate. […]. Prism software (Graphpad) was used for data analysis. […]

[2] = target: T1, mouse odorant receptor OREG; assay: CRE-luciferase reporter gene assay, OREG; format: cell-based; conditions: 293T cells; compared to OR alone or control pCI
Excerpt: Poor odorant evoked signaling activity in heterologous cell culture systems expressing ORs has been attributed to the poor cell surface expression of ORs. The identification of REEP and/or RTP allowed a direct assessment of this issue. A luciferase reporter gene assay was employed in which a cAMP responsive element (CRE) mediated luciferase gene expression (see FIG. 8A). Because OR activation leads to an increase in cAMP, activation of the mouse odorant receptor OREG by its ligand eugenol was measured in the presence and absence of REEP and/or RTP (see, e.g., Kajiya, K., et al. (2001) J Neurosci 21, 6018-6025; Touhara, K., et al., (1999) Proc Natl Acad Sci USA 96, 4040-4045; each herein incorporated by reference in their entireties). As reported previously, eugenol increased levels of OREG dependent luciferase activity (see, e.g., Katada, S., et al. (2003) Biochem Biophys Res Commun 305, 964-969; herein incorporated by reference in its entirety).
To facilitate analysis of odorant-OR interactions, 293T cell lines were established which stably express REEP1, RTP1, RTP2 and Gαolf, the G protein alpha subunit that couples to OR (see, e.g., Belluscio, L., et al. (1998) Neuron 20, 69-81; Jones, D. T., and Reed, R. R. (1989). Science 244, 790-795; each herein incorporated by reference in their entireties). To establish such cells, linearized expression vectors containing mouse REEP1, RTP1, RTP2 and Gαolf ORFs were transfected into 293T cells with PGK-Pac (puromycin resistant gene) (see, e.g., Watanabe, S., et al. (1995) Biochem Biophys Res Commun 213, 130-137; herein incorporated by reference in its entirety). […] Enhanced cell-surface expression was observed when OREG or other ORs were transfected in Hana3A cells and immunostained (see FIG. 10). […] Expression of Gαolf alone in 293T cells had little or no effect on OR activation using this assay.
Dual-Glo system (Promega) for luciferase assay was used. CRE-Luciferase (Stratagene) was used to measure the receptor activities. Renilla luciferase driven by constitutively active SV40 promoter (pRL-SV40: Promega) was used as an internal control. Cells were plated on poly-D-lysine coated 96 well plates (BIOCOAT, Beckton Dickinson). After 8 hours (for experiments shown in FIGS. 8B and 8C) or 12 hours (for experiments shown in FIG. 8D and FIG. 11) after transfection, the medium was replaced with CD293 chemically defined medium (Invitrogen) and the plates were incubated for one hour at 37 degrees C. The medium was replaced with 50 ul of odorant solutions dissolved in CD293 and incubated for 10 hours (for experiments shown in FIGS. 8B and 8C) or 4 hours (for experiments shown in FIG. 8D and FIG. 11) at 37 degrees C. The manufacture's protocol for measuring luciferase and Renilla luciferase activities was followed. Luminescence was measured using Wallac Victor 1420 (Perkin-Elmer). Normalized luciferase activity was calculated as [Luc (N)-Luc (0)]/RL (N), where Luc (N)=Luminescent count of a certain well, Luc (0)=Luminescent count without odorant for each OR, and RL (N)=Luminescent count of Renilla Luciferase of each well. For cAMP assays, cells were plated onto 24-well plate. […]. Prism software (Graphpad) was used for data analysis.

[3] = tested on: MOR203-1; assay: Living-cell staining of cell-surface MOR203-1; format: cell-based, mouse; conditions: accessory protein co-transfected in 293T cells
Excerpt: After hypothesizing that mammalian ORs require accessory protein(s) for functional cell surface expression, a search was instituted for detecting such molecule(s). Long-SAGE (serial analysis of gene expression) libraries (see, e.g., Saha, S., et al., (2002) Nat Biotechnol 20, 508-512; herein incorporated by reference in its entirety) were constructed from single olfactory neurons as well as neurons from the vomeronasal organ and genes were collected that are expressed by these neurons. To identify candidate genes expressed by the olfactory neurons Digital Differential Display (see, e.g., http://www, followed by, .ncbi.nlm.nih.gov/UniGene/info_ddd.shtml) was also used. Candidate genes were investigated for ORFs that encode membrane associated proteins. Genes were selected with similarities to known chaperones and cloned the cDNAs from olfactory epithelium cDNAs. The mRNA expression of each gene was verified by in situ hybridization. After isolating and subcloning into mammalian expression vectors, each cDNA together with a mouse OR (MOR203-1) tagged with a 20 N-terminal amino acids of rhodopsin (Rho-tag), was transfected into 293T cells. We measured whether these clones had any effect on the cell-surface expression of ORs by staining living cells using antibodies against the Rho-tag (see, e.g., Laird, D. W., and Molday, R. S. (1988) Invest Opthalmol Vis Sci 29, 419-428; herein incorporated by reference in its entirety). When MOR203-1 was transfected alone, antibody staining detected only faint cell-surface expression in less than 1% of the cells. A schematic diagram outlining the screening procedure utilized with the present invention is provided at FIG. 1.
293T cells were maintained in minimal essential medium containing 10% fetal bovine serum (M10). Lipofectamine 2000 (Invitrogen) was used for transfection. In live-cell staining, 16 hours after transfection, cells were incubated in M10 containing anti rhodopsin antibody, 4D2 (see, e.g., Laird, D. W., and Molday, R. S. (1988) Invest Opthalmol V is Sci 29, 419-428; herein incorporated by reference in its entirety) and 15 mM NaN3 at 4 degrees C. for 1 hour. After washing, cells were incubated with Cy3-conjugated anti mouse IgG (Jackson Immunologicals), washed and mounted. For FACS analysis, 4D2 and PE-conjugated anti mouse IgG (Jackson Immunologicals) were used to monitor the Rho tagged receptor expression. Anti HA rabbit antibodies (Sigma) and Alexa 488 conjugated anti rabbit IgG (Molecular Probes) was used to stain the HA-β2 adrenergic receptor. To establish the Hana3a cells, 1 ug/ml of puromycin was used for selection. 96 colonies were picked and assayed using luciferase assay using OREG.

| Molecule | response of olfr62 to odorant (luciferase) [1] | OREG activity by luciferase, accessory protein co-expressed [2] | cell surface expression of MOR203-1 [3] |
| --- | --- | --- | --- |
| O=c1ccc2ccccc2o1 [coumarin, Coumarin] | responded | – | – |
| O=C1Cc2ccccc2O1 [2-coumaranone, 2-Coumaranone] | preferred ligand | – | – |
| O=Cc1ccc2c(c1)OCO2 [piperonal, Piperonal] | responded | – | – |
| RTP2: a close relative of RTP1; murine SEQ ID NO: 34, human SEQ ID NO: 38 (protein, listed as Mus musculus) MSTSLTTCEWKKVFYEKMEVAKPADSWELIIDPTLKPNELGPGWKQYLEQHASGRFHCSWCWHTWQSANVVILFHMHLDRAQRVGSVRMRVFKQLCYQCGTSRLDESSMLEENIEGLVDNLITSLREQCYDEDGGQYRIHVASRPDSGLHRSEFCEACQEGIVHWKPSEKLLEEDAAYTDASKKKGQAGFISSFFSFRWCLFWGTLCLVIVYLQFFRGRSGFL | – | enhanced luciferase activities compared to OR alone | also enhanced cell surface expression |
| REEP2: other member of the REEP family; murine SEQ ID NO: 22 (protein, listed as Mus musculus) MVSWIISRLVVLIFGTLYPAYSSYKAVKTKNVKEYVKWMMYWIVFAFFTTAETLTDIILSWFPFYFELKIAFVIWLLSPYTKGSSVLYRKFVHPTLSNKEKEIDEYITQARDKSYETMMRVGKRGLNLAANAAVTAAAKGQGVLSEKLRSFSMQDLTLIRDEDALPLQGPDGRLQPGPVGLLDTIEDLGDEPALSLRSSTSQPDPRTETSEDDLGDKAPKRTKPIKKVPRAEPPASKTLKTRPKKKSSGGGDSA | – | – | not observed |
| RTP4: other member of the RTP family; murine SEQ ID NO: 36 (protein, listed as Mus musculus) MLFPDDFSTWEQTFQELMQEEKPGAKWSLHLDKNIVPDGAALGWRQHQQTVGRFQCSRCCRSWTSAQVMILCHMYPDTLKSQGQARMRIFGQKCQKCFGCQFETPKFSTEIIKRILNNLVNYILQRYYGHRKIALTSNASLGEKVTLDGPHDTRNCEACSLNSHGRCALAHKVKPPRSPSPLPNSSSPSKSCPPPPQTRNTDFGNKTLQDFGNRTFQGCREPPQREIEPPLFLFLSIAAFALFSLFTR | – | did not produce a significant increase | not observed |
